Data from patent publication EP4682170A1.

What was measured:
[1] = target: human CD3εγ (human) (UniProt P07766); test: SPR, Biacore T200; human CD3εγ immobilised on CM5 chip, antibody as analyte
[2] = target: human CD3εδ (human) (UniProt P07766); test: SPR, Biacore T200; human CD3εδ immobilised on CM5 chip, antibody as analyte
[3] = target: human CD3 on T cells of human peripheral blood mononuclear cells (human) (UniProt P07766); test: cell-based or functional assay
[4] = target: human CD3εδ (human) (UniProt P07766); test: SPR, Biacore T200; ratio between the KD values on CD3εδ and CD3εγ
[5] = target: human CD3εδ (human) (UniProt P07766); test: SPR, Biacore T200; human CD3εδ immobilised on CM5 chip, antibody as analyte (Example 2-3)

Chain of human CD3εδ (human) (P07766 23-126, stated change not applied, chain 1 of 2): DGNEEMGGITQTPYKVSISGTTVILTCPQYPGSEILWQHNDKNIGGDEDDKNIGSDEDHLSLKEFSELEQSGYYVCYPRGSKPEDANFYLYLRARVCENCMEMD
Chain of human CD3εδ (human) (P04234 22-105, stated change not applied, chain 2 of 2, further chain): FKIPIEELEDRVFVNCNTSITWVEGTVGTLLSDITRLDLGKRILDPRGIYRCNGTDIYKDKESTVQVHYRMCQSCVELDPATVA
Chain of human CD3 on T cells of human peripheral blood mononuclear cells (human) (P07766 23-207, chain 1 of 3): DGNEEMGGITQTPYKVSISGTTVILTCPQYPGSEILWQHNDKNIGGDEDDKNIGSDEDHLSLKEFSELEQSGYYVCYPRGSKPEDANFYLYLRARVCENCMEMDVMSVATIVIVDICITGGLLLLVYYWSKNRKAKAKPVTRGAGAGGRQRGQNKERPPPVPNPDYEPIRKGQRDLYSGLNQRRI
Chain of human CD3 on T cells of human peripheral blood mononuclear cells (human) (P04234 22-171, chain 2 of 3, further chain): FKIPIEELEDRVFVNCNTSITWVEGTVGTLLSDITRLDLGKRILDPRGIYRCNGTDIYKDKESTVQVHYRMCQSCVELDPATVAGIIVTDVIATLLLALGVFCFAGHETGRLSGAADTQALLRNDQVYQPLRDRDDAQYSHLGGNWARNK
Chain of human CD3 on T cells of human peripheral blood mononuclear cells (human) (P09693 23-182, chain 3 of 3, further chain): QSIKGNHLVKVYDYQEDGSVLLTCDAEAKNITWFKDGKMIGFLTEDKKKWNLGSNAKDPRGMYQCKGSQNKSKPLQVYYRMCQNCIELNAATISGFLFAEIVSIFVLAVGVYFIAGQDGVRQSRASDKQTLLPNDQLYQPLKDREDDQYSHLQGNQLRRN
Chain of human CD3εγ (human) (P07766 23-126, chain 1 of 2): as the sequence (P07766 23-126, stated change not applied, chain 1 of 2) above
Chain of human CD3εγ (human) (P09693 23-116, chain 2 of 2, further chain): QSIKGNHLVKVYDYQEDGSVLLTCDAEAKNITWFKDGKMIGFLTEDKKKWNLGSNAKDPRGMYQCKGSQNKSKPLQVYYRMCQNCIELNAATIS

Kd [1]: 272 pM | Kd [2]: 14.1 pM | IFNγ release, EC50 nM [3]: 0.003 nM | IFNγ release, Maximum concentration [3]: 16 ng/mL | T cell activation (CD3+ CD8+ CD69+), human PBMC alone without target cells [3]: 60% | ratio of the binding strength to CD3εδ / binding strength to CD3εγ [4]: 19.3 fold | Kd [5]: 34.1 pM
Substance: CD3 (UCHT1)-binding monoclonal antibody
Death of cancer cells, EC50 nM (MDA-MB-231 + human PBMC, 48 h) [3]: 0.0005 nM | Death of cancer cells, Emax (%) [3]: 46%
